US20250026849A1 (ARCELLX, published 2025)
Positions count from the first letter of the chain named. Values belong to the binder of their own block, whether it stands above or below them.

Key:
HER2 = target: T1, HER2 (human, UniProt P04626 23-652); assay: ELISA, format not described; set-up: unit not given here
T1 construct: The ELISA is not described; also called ERBB2; CD340

CD123 = target: T2, CD123 (Homo sapiens (Human), UniProt P26951 19-305, limits assumed); assay: ELISA, format not described; set-up: unit not given here
T2 construct: also called CD123-Signal
T2 sequence: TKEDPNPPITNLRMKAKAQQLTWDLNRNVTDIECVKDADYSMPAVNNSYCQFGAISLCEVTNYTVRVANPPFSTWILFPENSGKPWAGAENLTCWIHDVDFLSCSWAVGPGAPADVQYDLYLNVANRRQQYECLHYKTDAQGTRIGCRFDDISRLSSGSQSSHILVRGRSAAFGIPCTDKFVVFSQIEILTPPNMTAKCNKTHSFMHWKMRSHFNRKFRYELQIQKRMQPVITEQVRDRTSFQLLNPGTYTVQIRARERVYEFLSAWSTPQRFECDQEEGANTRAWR

B1: HER2-binding D domain SEQ ID NO: 828 (designed binder)
chain: MGSWWEFHVRLRAIEYRLEALGGSEAELAAFEKEIAAFESELQAYKGKGNPEVEQLRLIAANIRHLLQAYRHN
ELISA_avg (HER2): 5.48

B2: HER2-binding D domain SEQ ID NO: 831 (designed binder)
chain: B1 chain with H8Q, R12A, E19K, Q55N, L58Q, I59L, N62H, H65S, L66V
ELISA_avg (HER2): 6.33

B12: D domain SEQ ID NO: 733 (designed binder)
chain: MGSWNEFYDRLSAIYFRLQALGGSEAELAAFEKEIAAFESELQAYKGKGNPEVEHLRWYAADIRMILQAYRHN
ELISA_avg (CD123): 10.6

B13: D domain SEQ ID NO: 735 (designed binder)
chain: B12 chain with N5E, S12G, Y15F, F16A, Q19H, H55D
ELISA_avg (CD123): 3.9

B14: D domain SEQ ID NO: 731 (designed binder)
chain: B12 chain with N5Y, D9N, F16A, H55D, M65Y, I66M
ELISA_avg (CD123): 10.6

B15: D domain SEQ ID NO: 732 (designed binder)
chain: B12 chain with N5Y, F16A, H55D, M65Y, I66M
ELISA_avg (CD123): 5.3

B16: D domain SEQ ID NO: 734 (designed binder)
chain: B12 chain with S24F
ELISA_avg (CD123): 9

B17: D domain SEQ ID NO: 737 (designed binder)
chain: B12 chain with N5K, Y8D, D9N, S12Y, Y15E, F16D, Q19R
ELISA_avg (CD123): 3.9

B18: D domain SEQ ID NO: 736 (designed binder)
chain: B12 chain with N5V, S12H, Q19L, H55D, M65L, I66V
ELISA_avg (CD123): 4.8

B23: D domain SEQ ID NO: 769 (designed binder)
chain: MGSWFEFVDRLEAIEMRLFALGGSEAELAAFEKEIAAFESELQAYKGKGNPEVELLRWRAAMIRYDLQAYRHN
ELISA_avg (CD123): 7.1

B24: D domain SEQ ID NO: 730 (designed binder)
chain: MGSWVEFWHRLDAIKARLNALGGSEAELAAFEKEIAAFESELQAYKGKGNPEVEDLRWYAADFRLILQAYRHN
ELISA_avg (CD123): 3.5

B26: D domain SEQ ID NO: 762 (designed binder)
chain: MGSWFEFEWRLEAIFDRLYALGGSEAELAAFEKEIAAFESELQAYKGKGNPEVEVLRAEAAEIRLRLQAYRHN
ELISA_avg (CD123): 6.9

B27: D domain SEQ ID NO: 763 (designed binder)
chain: B26 chain with F5W, W9D, E12M, F15Y, V55Y, E62L, L65E, R66T
ELISA_avg (CD123): 15.3

B28: D domain SEQ ID NO: 764 (designed binder)
chain: B26 chain with W9D, E12Y, F15E, V55Y, A58W, E59G, E62T, L65D, R66E
ELISA_avg (CD123): 4.7

B29: D domain SEQ ID NO: 766 (designed binder)
chain: B26 chain with E8W, W9D, E12D, F15E, V55E, A58D, E62W, L65G, R66T
ELISA_avg (CD123): 4.9

B30: D domain SEQ ID NO: 770 (designed binder)
chain: B26 chain with F5W, W9M, F15E, Y19F, V55S, A58W, E62F, L65D, R66I
ELISA_avg (CD123): 4

B32: D domain SEQ ID NO: 771 (designed binder)
chain: B26 chain with W9I, F15E, Y19F, V55F, A58D, L65Q, R66V
ELISA_avg (CD123): 3

B34: D domain SEQ ID NO: 768 (designed binder)
chain: B23 chain with F5V, M16D, L55F, W58D, R59Q, M62Y, Y65F, D66M
ELISA_avg (CD123): 4.9

B35: D domain SEQ ID NO: 767 (designed binder)
chain: MGSWEEFTDRLWAIEDRLYALGGSEAELAAFEKEIAAFESELQAYKGKGNPEVEWLRDEAAFIRKSLQAYRHN
ELISA_avg (CD123): 8.9

B36: D domain SEQ ID NO: 765 (designed binder)
chain: B35 chain with E5I, T8W, W12E, Y19W, W55E, F62W, K65D
ELISA_avg (CD123): 4.5

B39: HER2-binding D domain SEQ ID NO: 833 (designed binder)
chain: MGSWWEFNIRLHAIDYRLKALGGSEAELAAFEKEIAAFESELQAYKGKGNPEVELLREKAAQIRAQLQAYRHN
notes: also called eb09
ELISA_avg (HER2): 9.75

B40: HER2-binding D domain SEQ ID NO: 820 (designed binder)
chain: MGSWFEFEIRLRAIEYRLSALGGSEAELAAFEKEIAAFESELQAYKGKGNPEVEKLRELAAEIRYALQAYRHN
ELISA_avg (HER2): 7.75

B48: D domain SEQ ID NO: 724 (designed binder)
chain: MGSWYEFEDRLDAIQWRLWALGGSEAELAAFEKEIAAFESELQAYKGKGNPEVEFLRESAANIRQHLQAYRHN
ELISA_avg (CD123): 6.3

B49: D domain SEQ ID NO: 725 (designed binder)
chain: B48 chain with Y5S, D9Y, D12F, Q15E, W16N, W19D, S59E, N62M, H66L
ELISA_avg (CD123): 3.2

B51: D domain SEQ ID NO: 710 (designed binder)
chain: MGSWGEFWARLEAIWIRLDALGGSEAELAAFEKEIAAFESELQAYKGKGNPEVEWLREEAADIRRSLQAYRHN
ELISA_avg (CD123): 15

The remaining lines, values ahead:

ELISA_avg (HER2): 4.56
B3: HER2-binding D domain SEQ ID NO: 829 (designed binder)
chain: B1 chain with R12K, E19L, Q55D, L58Y, H65Q

ELISA_avg (HER2): 9.61
B4: HER2-binding D domain SEQ ID NO: 832 (designed binder)
chain: B1 chain with H8Q, R12S, E19T, Q55E, L58Q, I59K, N62R, H65S

ELISA_avg (HER2): 5.17
B5: HER2-binding D domain SEQ ID NO: 815 (designed binder)
chain: MGSWWEFKVRLSAIQYRLYALGGSEAELAAFEKEIAAFESELQAYKGKGNPEVEALREQAALIRTILQAYRHN

ELISA_avg (HER2): 3.91
B6: HER2-binding D domain SEQ ID NO: 824 (designed binder)
chain: B5 chain with W5I, K8W, S12N, Q15L, E58D, Q59S, L62E, T65R, I66W

ELISA_avg (HER2): 11.9
B7: HER2-binding D domain SEQ ID NO: 816 (designed binder)
chain: B39 chain with N8H, D15N, K19A, L55A, K59L, Q62K, A65G, Q66D

ELISA_avg (HER2): 4.49
B8: HER2-binding D domain SEQ ID NO: 818 (designed binder)
chain: B39 chain with N8K, H12Y, D15E, K19N, L55A, E58A, A65Y, Q66N

ELISA_avg (HER2): 10.1
B9: HER2-binding D domain SEQ ID NO: 822 (designed binder)
chain: B40 chain with F5W, E8K, I9V, K55E, E58V, E62S, Y65I, A66H

ELISA_avg (HER2): 14.4
B10: HER2-binding D domain SEQ ID NO: 817 (designed binder)
chain: B1 chain with H8Q, E15Q, E19N, Q55Y, L58G, I59L, N62Q, H65F, L66D

ELISA_avg (HER2): 14.8
B11: HER2-binding D domain SEQ ID NO: 823 (designed binder)
chain: MGSWSEFWFRLHAILYRLQALGGSEAELAAFEKEIAAFESELQAYKGKGNPEVETLRDAAAEIRVALQAYRHN

ELISA_avg (HER2): 10.6
B19: HER2-binding D domain SEQ ID NO: 825 (designed binder)
chain: MGSWVEFWIRLNAIKYRLLALGGSEAELAAFEKEIAAFESELQAYKGKGNPEVEKLRQDAADIRELLQAYRHN

ELISA_avg (HER2): 5.76
B20: HER2-binding D domain SEQ ID NO: 826 (designed binder)
chain: B19 chain with V5T, I9W, N12S, K15V, L19N, K55E, Q58D, D59M, E65S

ELISA_avg (HER2): 5.1
B21: HER2-binding D domain SEQ ID NO: 827 (designed binder)
chain: B19 chain with V5W, W8Y, I9L, N12R, K15S, L19Q, K55G, D62E, E65K

ELISA_avg (HER2): 8.15
B22: HER2-binding D domain SEQ ID NO: 810 (designed binder)
chain: MGSWHEFLRRLLAIEMRLYALGGSEAELAAFEKEIAAFESELQAYKGKGNPEVEHLRVRAASIRQMLQAYRHN
notes: also called eb05

ELISA_avg (HER2): 8.69
B25: HER2-binding D domain SEQ ID NO: 811 (designed binder)
chain: MGSWWGFKVNLAWIKWKLEALGGSEAELAYFELWIANFEHSLQEYKGKGNPEVEALRKEAAAIRDELQAYRHN

ELISA_avg (CD123): 21.8
B31: D domain SEQ ID NO: 773 (designed binder)
chain: B26 chain with F5I, W9D, F15E, Y19F, V55W, A58Q, R66M

ELISA_avg (CD123): 3
B33: D domain SEQ ID NO: 772 (designed binder)
chain: B35 chain with E5Y, T8Y, D9Q, W12E, Y19F, F62E, K65V, S66V

ELISA_avg (HER2): 4.95
B37: HER2-binding D domain SEQ ID NO: 814 (designed binder)
chain: MGSWKTFKIELAGIKLELEALGGSEAELAGFENAIAQFESSLQYYKGKGNPEVEALRKEAAAIRDELQAYRHN
notes: also called eb04

ELISA_avg (HER2): 7.86
B38: HER2-binding D domain SEQ ID NO: 819 (designed binder)
chain: B39 chain with W5F, D15E, L55E, E58N, K59Y, Q62S, A65K, Q66L

ELISA_avg (HER2): 13.1
B41: HER2-binding D domain SEQ ID NO: 821 (designed binder)
chain: B40 chain with E8K, R12Y, E15Q, K55E, E58N, Y65H, A66S

ELISA_avg (HER2): 6.82
B42: HER2-binding D domain SEQ ID NO: 834 (designed binder)
chain: B39 chain with N8R, I9V, H12E, L55Y, E58M, Q62T, Q66I
notes: also called eb06

ELISA_avg (HER2): 5.35
B43: HER2-binding D domain SEQ ID NO: 835 (designed binder)
chain: MGSWYEFDIRLEAIKYRLSALGGSEAELAAFEKEIAAFESELQAYKGKGNPEVEYLRKKAAVIRSMLQAYRHN

ELISA_avg (HER2): 8.04
B44: HER2-binding D domain SEQ ID NO: 836 (designed binder)
chain: B43 chain with Y5W, D8R, K15W, S19H, Y55D, K58I, K59F, V62N, M66K

ELISA_avg (HER2): 5.23
B45: HER2-binding D domain SEQ ID NO: 837 (designed binder)
chain: B39 chain with I9V, H12Q, D15K, K19S, L55D, E58K, K59T, Q62H, A65W

ELISA_avg (HER2): 3.28
B46: HER2-binding D domain SEQ ID NO: 813 (designed binder)
chain: MGSWLVFKDELAGIKNYLEALGGSEAELATFEQDIAWFEQWLQNYKGKGNPEVEALRKEAAAIRDELQAYRHN

ELISA_avg (HER2): 7.91
B47: HER2-binding D domain SEQ ID NO: 812 (designed binder)
chain: MGSWVNFKTHLARIKVHLEALGGSEAELALFEHDIANFEQVLQQYKGKGNPEVEALRKEAAAIRDELQAYRHN

ELISA_avg (HER2): 7.18
B50: HER2-binding D domain SEQ ID NO: 809 (designed binder)
chain: MGSWYEFRWRLHAIWLRLGALGGSEAELAAFEKEIAAFESELQAYKGKGNPEVEWLRQDAAQIRYILQAYRHN
notes: also called eb08
